Test results from publication PMC2867956, “Interdomain Interactions Control Ca^2+-Dependent Potentiation in the Cation Channel TRPV4” (PLoS ONE, 2010).

Tested on: CFP-fused N1
Assay: FRET acceptor bleaching, N1/C1 interaction in HEK293 cells
Format: cell-based, human
Settings: YFP-fused C1 and CFP-fused N1 coexpressed in HEK293 cells
Source text: (See Methods S1 for details).

B1: C1: full-length TRPV4 C terminus, residues 721-871 (protein, UniProt Q9HBA0 721-871, looked up, fragment)
chain: TVGQVSKESKHIWKLQWATTILDIERSFPVFLRKAFRSGEMVTVGKSSDGTPDRRWCFRVDEVNWSHWNQNLGIINEDPGKNETYQYYGFSHTVGRLRRDRWSSVVPRVVELNKNSNPDEVVVPLDSMGNPRCDGHQQGYPRKWRTDDAPL
- FRET interaction of N1 and C1: interact
